We go through 1 molecule from patent publication US6437095 (Hoffmann-La Roche, dated 2002).

The assay has as its target T1, polyionic peptide AlaCysLysLysLysLysLysLysLysLys (ACK8) (also: also used as mixed disulfide with glutathione on Cys (ACK8-SG)).
T1 construct: Synthetic peptide (Fmoc); also called ACK8-SG (mixed disulfide with glutathione)
T1 peptide: ACKKKKKKKK
Description: 20 µM ACE8 with the mixed disulfide ACK8-SG, 0 to 1 M NaCl, cation exchange chromatography.

Where no end group is shown, it is not given here.

As for ACEEEEEEEE (Synthetic peptide (Fmoc)) [polyionic peptide AlaCysGluGluGluGluGluGluGluGlu (ACE8)], the binding result is listed as “binds”.
